Assay results reported in patent publication US20150344570A1 (published 2015).

T1: FcγRIIb extracellular domain with C-terminal His tag (human, UniProt P31994 43-217)
T1 construct: extracellular domain; also called FcgRIIb; 2b; not shown: His tag attached to the C terminus
T1 sequence (looked up): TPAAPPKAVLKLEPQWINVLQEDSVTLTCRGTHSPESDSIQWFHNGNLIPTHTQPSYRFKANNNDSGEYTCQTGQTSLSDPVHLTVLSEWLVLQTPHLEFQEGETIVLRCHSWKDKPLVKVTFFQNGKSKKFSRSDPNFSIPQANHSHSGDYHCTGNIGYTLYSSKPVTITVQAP

T2: FcγRIIb extracellular domain with C-terminal His tag (human, UniProt P31994 43-217)
T2 construct: extracellular domain; Soluble receptor used as analyte in Biacore; also called FcgRIIb
T2 sequence (looked up): T1 sequence (looked up)

B1: GpH7-A5/GpH7-B3 variant A327_09D/GpL16-k0 (antibody, human IgG1, kappa)
heavy 1: not shown
heavy 2: not shown
light: DIVMTQSPLSLPVTPGEPASISCQASESLVHSNRNTYLHWYLQKPGQSPQLLIYKVSNRFSGVPDRFSGSGSGTDFTLKISRVEAEDVGVYYCSQNTHVPPTFGQGTKVEIERTVAAPSVFIFPPSDEQLKSGTASVVCLLNNFYPREAKVQWKVDNALQSGNSQESVTEQDSKDSTYSLSSTLTLSKADYEKHKVYACEVTHQGLSSPVTKSFNRGEC
notes: Heterodimerized IgG1, mutation in the GpH7-B3 chain only; also called He Ab
B2: GpH7-A5/GpH7-B3 variant A327_10E/GpL16-k0 (antibody, human IgG1, kappa)
heavy 1: not shown
heavy 2: not shown
light: B1 light
notes: as for B1
B3: GpH7-A5/GpH7-B3 variant N325_04F/GpL16-k0 (antibody, human IgG1, kappa)
heavy 1: not shown
heavy 2: not shown
light: B1 light
notes: as for B1
B4: GpH7-A5/GpH7-B3 variant L328_07I/GpL16-k0 (antibody, human IgG1, kappa)
heavy 1: not shown
heavy 2: not shown
light: B1 light
notes: as for B1
B5: GpH7-A5/GpH7-B3 variant L328_04F/GpL16-k0 (antibody, human IgG1, kappa)
heavy 1: not shown
heavy 2: not shown
light: B1 light
notes: as for B1
B6: GpH7-A5/GpH7-B3 variant L328_02A/GpL16-k0 (antibody, human IgG1, kappa)
heavy 1: not shown
heavy 2: not shown
light: B1 light
notes: as for B1
B7: GpH7-A5/GpH7-B3 variant L328_20W/GpL16-k0 (antibody, human IgG1, kappa)
heavy 1: not shown
heavy 2: not shown
light: B1 light
notes: as for B1
B8: GpH7-A5/GpH7-B3 variant N325_06M/GpL16-k0 (antibody, human IgG1, kappa)
heavy 1: not shown
heavy 2: not shown
light: B1 light
notes: as for B1
B9: GpH7-A5/GpH7-B3 variant L328_10E/GpL16-k0 (antibody, human IgG1, kappa)
heavy 1: not shown
heavy 2: not shown
light: B1 light
notes: as for B1
B10: GpH7-A5/GpH7-B3 variant L328_14T/GpL16-k0 (antibody, human IgG1, kappa)
heavy 1: not shown
heavy 2: not shown
light: B1 light
notes: as for B1
B11: GpH7-A5/GpH7-B3 variant N325_07I/GpL16-k0 (antibody, human IgG1, kappa)
heavy 1: not shown
heavy 2: not shown
light: B1 light
notes: as for B1
B12: GpH7-A5/GpH7-B3 variant I332_10E/GpL16-k0 (antibody, human IgG1, kappa)
heavy 1: not shown
heavy 2: not shown
light: B1 light
notes: as for B1
B13: GpH7-A5/GpH7-B3 variant I332_09D/GpL16-k0 (antibody, human IgG1, kappa)
heavy 1: not shown
heavy 2: not shown
light: B1 light
notes: as for B1
B14: GpH7-A5/GpH7-B3 variant L328_09D/GpL16-k0 (antibody, human IgG1, kappa)
heavy 1: not shown
heavy 2: not shown
light: B1 light
notes: as for B1
B15: GpH7-A5/GpH7-B3 variant L328_15Y/GpL16-k0 (antibody, human IgG1, kappa)
heavy 1: not shown
heavy 2: not shown
light: B1 light
notes: as for B1
B16: GpH7-A5/GpH7-B3 variant L328_13S/GpL16-k0 (antibody, human IgG1, kappa)
heavy 1: not shown
heavy 2: not shown
light: B1 light
notes: as for B1
B17: GpH7-A5/GpH7-B3 variant A330_05P/GpL16-k0 (antibody, human IgG1, kappa)
heavy 1: not shown
heavy 2: not shown
light: B1 light
notes: as for B1
B18: GpH7-A5/GpH7-B3 variant L328_06M/GpL16-k0 (antibody, human IgG1, kappa)
heavy 1: not shown
heavy 2: not shown
light: B1 light
notes: as for B1
B19: GpH7-A5/GpH7-B3 variant P331_16H/GpL16-k0 (He Ab) (antibody, human IgG1, kappa)
heavy 1: not shown
heavy 2: not shown
light: B1 light
notes: Heterodimerized antibody with the alteration in one H chain only

Each binder was assayed against T3, FcγRIa extracellular domain with C-terminal His tag (human, UniProt P12314 16-292) (assay: ratio He/Con_1a : He/Con_2b (FcγRIa over FcγRIIb), SPR (Biacore)).
T3 construct: extracellular domain; Soluble receptor used as analyte in Biacore; also called FcgRI
T3 sequence (P12314 16-292): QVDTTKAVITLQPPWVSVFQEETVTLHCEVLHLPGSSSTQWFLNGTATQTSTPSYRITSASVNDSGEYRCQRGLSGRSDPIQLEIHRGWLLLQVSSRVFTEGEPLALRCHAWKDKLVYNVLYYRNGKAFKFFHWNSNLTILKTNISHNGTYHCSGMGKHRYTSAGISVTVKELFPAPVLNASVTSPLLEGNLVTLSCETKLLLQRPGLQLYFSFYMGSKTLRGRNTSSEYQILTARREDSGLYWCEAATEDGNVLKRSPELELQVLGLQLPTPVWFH

He_1a/2b (Ia/IIb) | Binder
0.6 | B1
0.74 | B2
0.65 | B3
0.62 | B4
0.45 | B5
0.68 | B6
0.44 | B7
0.45 | B8
0.59 | B9
0.71 | B10
0.55 | B11
0.68 | B12
0.64 | B13
0.51 | B14
0.53 | B15
0.66 | B16
0.74 | B17
0.7 | B18

The binders below were run against T1, FcγRIIb extracellular domain with … (assay: SPR (Biacore), antibody captured on antigen peptide chip, FcγR as analyte; relative binding).
Description: (§1) The heterodimerized antibodies He Abs in which one of the H chains was introduced with an alteration were assayed for their binding activities to each activating FcγR and inhibitory FcγR according to the method described in Example 4. […] The activating FcγRs in FIGS. 26, 27, 28, and 29 are FcγRIa, FcγRIIa (R), FcγRIIa (H), and FcγRIIIa, respectively.
(§2) Analysis of interaction between objective antibody and the FcγR was carried out using Biacore T100 (GE Healthcare). HBS-EP+ (GE Healthcare) was used as the running buffer, and the measurement temperature was set to 25° C. Chips produced by immobilizing the antigen peptide by the amine coupling method to a Series S Sencor Chip CM5 (GE Healthcare), or alternatively, chips produced by allowing preliminarily biotinylated antigen peptides to interact with and immobilize onto a Series S Sensor Chip SA (certified) (GE Healthcare) were used. Antibodies of interest were captured onto an antigen peptide-immobilized chip, and allowed to interact to each FcγR diluted with running buffer. To regenerate and repeatedly use the chip, the antibodies captured on the chip were washed off by reacting 10 mM glycine-HCl, pH 1.5.

He/Con_2b | Binder
116 % of GpH7-A5/GpH7-B3/GpL16-k0 (=100) | B19

What follows are binders tested against T4, FcγRIIIa extracellular domain with C-terminal His tag (human, UniProt P08637 17-208) in the same assay as above.
T4 construct: extracellular domain; also called FcgRIIIa; 3a; not shown: His tag attached to the C terminus
T4 sequence (P08637 17-208): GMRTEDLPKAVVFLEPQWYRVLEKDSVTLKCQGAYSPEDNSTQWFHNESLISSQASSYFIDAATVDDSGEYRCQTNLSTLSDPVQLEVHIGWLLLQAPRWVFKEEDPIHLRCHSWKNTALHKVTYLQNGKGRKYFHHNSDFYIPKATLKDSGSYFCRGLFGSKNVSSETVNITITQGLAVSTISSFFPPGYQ
Description: as §1, §2

He/Con_3a | Binder
80.2 % of GpH7-A5/GpH7-B3/GpL16-k0 (=100) | B19

These binders were tested against T3, FcγRIa extracellular domain with … (assay: SPR (Biacore), antibody captured, FcγR as analyte; binding relative to GpH7-A5/GpH7-B3/GpL16-k0 = 100).

He/Con_1a [control = 100] | Binder
103 | B1
103 | B2
93.2 | B3
99.4 | B4
97.9 | B5
98.5 | B6
103 | B7
97.6 | B8
101 | B9
100 | B10
94.8 | B11
96.3 | B12
93.4 | B13
102 | B14
102 | B15
99 | B16
101 | B17
98.7 | B18

Each binder was assayed against T2, FcγRIIb extracellular domain with … in the same assay as above.

He/Con_2b [control = 100] | Binder
172 | B1
140 | B2
143 | B3
160 | B4
219 | B5
144 | B6
235 | B7
217 | B8
172 | B9
141 | B10
171 | B11
142 | B12
147 | B13
199 | B14
193 | B15
149 | B16
137 | B17
142 | B18
